# The supplement of paper PMC9170038
# System: MS2 coat protein
# Assay: apparent KD of MS2 coat protein; designed switch direction (-1 OFF switch, 1 ON switch): -1; higher = weaker reporter binding
# Method in brief: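 For each design, the apparent KD is the median over clusters of curves fitted to normalised cluster fluorescence. Clusters held RNA switches with common flanks, transcribed on Illumina chips by stalled E. coli RNA polymerase. These were titrated with SNAP-549-labelled MS2 coat protein, doubling from 0.7 or 1.5 nM to 3 µM, without input, with 200 uM small-molecule ligand, or with an oligonucleotide input.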
# [1] = Eterna round: R95, input ligand: FMN 200 uM
# [2] = Eterna round: R95, input ligand: microRNA oligo, concentration not stated
# [3] = Eterna round: R95, input ligand: none
# [4] = input ligand: microRNA oligo, concentration not stated
Sequence,apparent KD of MS2 coat protein (input ligand: FMN 200 uM) [µM],apparent KD of MS2 coat protein (input ligand: none) [µM],apparent KD of MS2 coat protein [1] [µM],apparent KD of MS2 coat protein [2] [µM],apparent KD of MS2 coat protein [3] [µM],apparent KD of MS2 coat protein [4] [µM]
"GUGAUCUAUCAUGGAAUAAACAUGAGGAUCACCCAUGUAGACAAGUUUUUUGCUCGUCUUAUAAUAAGAUAGAUCAC [Antenna 14 - Jieux - Sensor, turn-off variant 1] (Eterna round: R97, puzzle: Sensor, turn-off variant 1)",0.0155,0.0142,–,–,–,–
"AGUACUAACACGAAAGUGUUAGUACAAUAAGCUUGUAUUACAUGAGGAUCACCCAUGUCCUCAUAAGCUCGUCUUAU [Mat - Sensor v3 - Turn-off var 2 - D46] (puzzle: Sensor v3, turn-off variant 2)",–,–,0.316,0.014,0.881,–
"UUCCUCAUAACAUGAGGAUCACCCAUGUAUUAUUUGAUAACUGAGGAUAUACUAAUAAUGUUUAUGUAGAAGGCAGAUACAGAU [JR_ExcNG3_Sub015] (Eterna round: R96, puzzle: Exclusion NG 3)",0.623,0.0591,–,–,–,0.0691
"AAGAGCAUCGGAGGAUAUGGAGCUGAAACGGCGCUAGAAGGCCGUGCAGUGUAACAUGAGGAUCACCCAUGUAGGGACCUCUAA [EX ng 1 4] (Eterna round: R96, puzzle: Exclusion NG 1)",0.244,0.104,–,–,–,0.0829
"AUUAUACAUGUAGGAUAUCUGCACGUUUAGUGCAGAGAAGGACAUGAGGAUCACCCAUGUAGAUCAAUAAUAAUUAAUUUAAUU [ENG1/6-B2] (Eterna round: R96, puzzle: Exclusion NG 1)",0.889,0.202,–,–,–,0.203
CUUUUGUGAGGAUAUUAGUAGUAAAUAAAUAAUAUUACUACUGAGAAGGCACAUGAGGAUCACCCAUGUUCCUC [salish99_ex4_r3_059] (puzzle: Exclusion 4),–,–,–,0.0388,–,–
"AGCUGUGGCCGAGGAUAUCUAACAAUCCAAACCGAAAUAUAAUCGGACAUGAGGAUCACCCAUGUAGAGAAGGCGGUCUCAGCA [Eli eng2 - 075] (Eterna round: R96, puzzle: Exclusion NG 2)",–,–,–,–,–,0.0327
"CGAAUUCGUUAGGAUAUGAGGCAGAGGUCCGCCUCAGAAGGAAUGACAUGAGGAUCACCCAUGUAGACCCAAGG [Eternabot (Original) Solution 1] (Eterna round: R97, puzzle: Exclusion 6)",0.0189,0.0191,–,–,–,–
"CAGUACAGAGGAUAUACAUGAGGAUCACCCAUGUGUUUCAGCUAGGAGACUAGCGAAAGUAGAAGGCUGUACUU [salish99_ex3_r4_002] (Eterna round: R97, puzzle: Exclusion 3)",0.023,0.0113,–,–,–,–
"AAAUACCGGUGAGGAUAUUUAUAAUAGAACUUUAUGAUAUACAUGAGGAUCACCCAUGUUACUUUAAAGAAGGCAUCGGAUAAA [Mat - Exclusion NG 2 - Mod of JL - D89] (Eterna round: R96, puzzle: Exclusion NG 2)",–,–,–,–,–,0.0139
"GUCAUCAAACAUGGGAUAAACAUGAGGAUCACCCAUGUUUACAAGUUUUUUGCUCGUCUUAUAAUAAGUUUGAUGAC [Antenna 8 - Jieux - Sensor, turn-off variant 1] (Eterna round: R97, puzzle: Sensor, turn-off variant 1)",0.014,0.015,–,–,–,–
"ACAUGAGGAUCACCCAUGUGACCACAAUGGCUGAUGUAACGACAGGAUAUGCGUGAAUAUCUAACGCAGAAGGGUCAUGACUGG [Deportation 61 - Jieux - Exclusion NG 3] (Eterna round: R96, puzzle: Exclusion NG 3)",0.0628,0.0482,–,–,–,0.0305
AUCUUGUAAGGAUAUCUGACAAGUGACGAAAGUCACAGUUCAGAGAAGGUACAUGAGGAUCACCCAUGUAGAAC [Ex4-3: 41] (puzzle: Exclusion 4),–,–,–,0.0159,–,–
"GCACGGAAUGUAGGAUAUUAGUGCGAUUAGCACUGAGAAGGACAUGAGGAUCACCCAUGUAAUAACAUAAUAAACCUUCCGUGC [Eli exng1 - 046] (Eterna round: R96, puzzle: Exclusion NG 1)",0.0121,0.0136,–,–,–,0.00827
"AGAUGUAGAUACCGAUCCUACAUGAGGAUCACCCAUGUAGCUAGACGUGCUCGCGUAGCUCGUCAGACUACCAGUAG [salish99_TOv1_r3_087] (puzzle: Sensor v3, turn-off variant 1)",–,–,0.242,0.156,0.267,–
"UAUUAACAAGUAAGAUCCUACAUGAGGAUCACCCAUGUGCUCGUCUUAUAAGGUACUGUGACGAAAGUCACGGUACC [Sensor 3, v1 - 72] (puzzle: Sensor v3, turn-off variant 1)",–,–,0.0376,0.0467,0.0394,–
AUGUUACAUGAGGAUCACCCAUGUCAGGAUAUCUAUCAUAGCAUAGAAAUAUGCGGGUAGAGAAGGGACUAUCC [ChP Ext 10-04-2015 #5] (puzzle: Exclusion 1),–,–,–,0.0147,–,–

Sequence,apparent KD of MS2 coat protein (input ligand: FMN 200 uM) [µM],apparent KD of MS2 coat protein (input ligand: none) [µM],apparent KD of MS2 coat protein [1] [µM],apparent KD of MS2 coat protein [2] [µM],apparent KD of MS2 coat protein [3] [µM],apparent KD of MS2 coat protein [4] [µM]
"ACCGACAGAGGAUAUGCAAGUAGGAACAUGAGGAUCACCCAUGUGAUACGUGCACGUGCGGCAGAAGGCUGAUCGA [Velamaed] (Eterna round: R97, puzzle: Exclusion 5)",0.0171,0.0154,–,–,–,–
AAGAAACAUGAGGAUCACCCAUGUGAGGAUAUGAGCAAGAAAAGAAAAGAAAGAAGAUUCAGAAGGCACAAAGG [salish99-ex1_r3_059] (puzzle: Exclusion 1),–,–,0.0616,0.0394,0.0593,–
"GUAGAGUGAGGAUAUACGAGAUCGAUAGAUCGGCGAUCCAUACAUGAGGAUCACCCAUGUAGAAGGCACUCUAC [Mat - Exclusion 2 - Eli Mod - D2] (Eterna round: R97, puzzle: Exclusion 2)",0.625,0.0293,–,–,–,–
UUUUAACAUGAGGAUCACCCAUGUGAGGAUAUCGAAAUUUAUAUUAAUAUUUAUUUAACGAGAAGGCACAUUUU [JMF 63] (puzzle: Exclusion 1),–,–,–,0.0932,–,–
UUAUAUAGAGUGAGGAUAUGCUGGUCCUUGGAUCAGCAGAAGGCACAUGAGGAUCACCCAUGUAAUAUAAUAUU [Mat - Exclusion 4 - JL Mod - D38] (puzzle: Brourd's mod of Exclusion 4),–,–,–,0.0211,–,–
"CAUGAUUGGCGAGGAUAUUGAUCUAGUUGGCGACGAGAAGGCGCCUGUCACAUGAGGAUCACCCAUGUGUGUCUGGUGAAUGAG [Ex NG1 #86] (Eterna round: R96, puzzle: Exclusion NG 1)",0.0825,0.0633,–,–,–,0.0484
"UGAUCAGACCGAGGAUAUACAUGUAGGACGCACGUGAGUGCGUCCAGUACAUGAGGAUCACCCAUGUAGAAGGCGGUCUGAUCU [JL ENG2 1.95] (Eterna round: R96, puzzle: Exclusion NG 2)",0.309,0.0761,–,–,–,0.0782
"UAUUAGCAAGCAAGAUCCCACAUGAGGAUCACCCAUGUGCUCGUCUUAUAAGGUACUGUGACGAAAGUCACGGUACC [Sensor 3, v1 - 95 v2] (Eterna round: R97, puzzle: Sensor, turn-off variant 1)",0.0525,0.0454,–,–,–,–
"UAUGUGUCAGGAUAUUAAUUAUAGGAGAAUGUGACGAUGAUUAAGAAGGGACAUGAGGAUCACCCAUGUUCAUC [JR_Ex4_Sub025] (Eterna round: R97, puzzle: Exclusion 4)",0.0213,0.019,–,–,–,–
"UACAUGAGGAUCACCCAUGUUUUGUCGUGUAUGGUAUUUAUCUAGGAUAUCAUUCUAUUUAUUUAUGAGAAGGAGAAUAUUAAU [JMF's solution 98] (Eterna round: R96, puzzle: Exclusion NG 3)",0.0334,0.0297,–,–,–,0.0235
"GAGUAGUAAGGAUAUGUCUCUGGUGGCUACGGUCACUAGAGGCAGAAGGUACAUGAGGAUCACCCAUGUUUCUC [ExDelusion 9 - Jieux - Exclusion 4] (Eterna round: R97, puzzle: Exclusion 4)",0.0831,0.0392,–,–,–,–
GAUCAACAUGAGGAUCACCCAUGUGAGGAUAUGAUACUAUGUACUUCGGUACAUAGUAUCAGAAGGCACAUAAA [Ex1-3: 38] (puzzle: Exclusion 1),–,–,–,0.0724,–,–
"AGAUAACAUGAGGAUCACCCAUGUGAGGAUAUUUACCCAAGAGCUUCGGCUCUCAGGUGAAGAAGGCACAUUGA [EX1 #58] (Eterna round: R97, puzzle: Exclusion 1)",0.316,0.0864,–,–,–,–
"UCCUUACUGGUCAGGAUAUACAGUCGCGGGUGGGUGUAGAAGGGACAUGAGGAUCACCCAUGUACGUUACAUCC [alecazam54h] (Eterna round: R97, puzzle: Brourd's mod of Exclusion 4)",0.0197,0.0199,–,–,–,–
"UACAUGAGGAUCACCCAUGUUUUGUCGUGUAUGGUAUUUAUCUAGGAUAUCACGUUAUUUAUUUAUGAGAAGGAGAAUAUUAAU [JMF's solution 26] (Eterna round: R96, puzzle: Exclusion NG 3)",0.0389,0.039,–,–,–,0.0171
GGUUGGCGAGGAUAUACAUGAGGAUCACCCAUGUGAGAAUAAAAAGUGAGGAAGAAAAGUAGAAGGCGCUGACG [Mat - Exclusion 3 - Mod of Salish D5] (puzzle: Exclusion 3),–,–,0.0765,0.0316,0.0363,–
